Experimental findings from patent US20250179176A1, “ANTI-TIGIT ANTIBODIES AND USES OF THE SAME” (ARCUS BIOSCIENCES, INC., priority 2022, published 2025) are described below.

In one series the target is human FcγR1 (Homo sapiens, UniProt P12314). The series is described as follows: ELISA binding of domvanalimab to FcγR. Conditions: up to 1 μM, vs human IgG1 control. As for the experimental part:
Antibody-dependent cell mediated cytotoxicity (ADCC) is mediated by the antibody Fc domain binding to a FcγR. […] Human IgG1 was used as a positive control and buffer containing no antibody was used as a negative control.
Briefly, ELISA plate coating solution was prepared by diluting human Fc-gamma receptors in PBS to a final concentration of 1 μg/mL (FcγR1) or 4 μg/mL (Fcγ R2A, 2B, 3A and 3B). 30 μL of coating solution was added to each well of the test plates, and the ELISA plates were then incubated overnight at 4° C. to facilitate receptor binding. The following day, ELISA plates were washed four times with 80 μL wash buffer (1×PBS+0.05% Tween-20) per well, prior to blocking with 80 μL blocking buffer (1×PBS+2% BSA) per well at room temperature for 2 hours.
Plates were then incubated for an hour prior to removal of well contents by aspiration followed by four washes with wash buffer. 30 μL of anti-human IgG HRP conjugate at 1:2500 dilution in antibody buffer was added to each of the washed wells. Plates were further incubated at room temperature for an additional 30 minutes. […] Luminescent signals were captured using an Envision Multimode Reader (Perkin Elmer) system approximately 10 minutes after substrate addition.
In general terms: An ELISA detects its analyte on a solid surface through an enzyme-linked reagent.

[1] abbreviates: monotherapy cohort (N=10), initial cutoff.
Setting [2] is: monotherapy cohort (N=10), Grade 1.

“Also recorded” adds a separate entry of the source.

Chain of human FcγR1 (P12314 16-374): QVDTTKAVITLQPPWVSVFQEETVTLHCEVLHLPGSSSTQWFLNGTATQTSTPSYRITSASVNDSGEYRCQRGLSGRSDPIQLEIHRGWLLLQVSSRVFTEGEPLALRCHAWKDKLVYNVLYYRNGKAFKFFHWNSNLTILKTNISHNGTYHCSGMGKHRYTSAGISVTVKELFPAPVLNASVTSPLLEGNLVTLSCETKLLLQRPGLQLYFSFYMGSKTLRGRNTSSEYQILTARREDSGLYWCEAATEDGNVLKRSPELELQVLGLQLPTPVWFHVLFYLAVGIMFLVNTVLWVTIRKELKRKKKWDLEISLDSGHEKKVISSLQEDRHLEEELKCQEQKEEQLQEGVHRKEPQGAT

B1: domvanalimab: anti-TIGIT antibody with engineered IgG1 Fc, reduced FcγR binding; heavy chain SEQ ID NO: 12, light chain SEQ ID NO: 13 (antibody)
heavy: EVQLVESGGGLVQPGGSLRLSCAASGFTFSNFGMHWVRQAPGKGLEWVAFISSGSSSIYYADTVKGRFTISRDNAKNSLYLQMNSLRAEDTAVYYCARMRLDYYAMDYWGQGTMVTVSSASTKGPSVFPLAPSSKSTSGGTAALGCLVKDYFPEPVTVSWNSGALTSGVHTFPAVLQSSGLYSLSSVVTVPSSSLGTQTYICNVNHKPSNTKVDKKVEPKSCDKTHTCPPCPAPEAAGGPSVFLFPPKPKDTLMISRTPEVTCWVDVSHEDPEVKFNWYVDGVEVHNAKTKPREEQYNSTYRWSVLTVLHQDWLNGKEYKCKVSNKALPAPIEKTISKAKGQPREPQVYTLPPSRDELTKNQVSLTCLVKGFYPSDIAVEWESNGQPENNYKTTPPVLDSDGSFFLYSKLTVDKSRWQQGNVFSCSVMHEALHNHYTQKSLSLSPGK
light: DIQMTQSPSSLSASVGDRVTITCRASKSISKYLAWYQQKPGKAPKLLIYSGSTLQSGVPSRFSGSGSGTDFTLTISSLQPEDFATYYCQQHNEYPWTFGGGTKVEIKRTVAAPSVFIFPPSDEQLKSGTASWCLLNNFYPREAKVQWKVDNALQSGNSQESVTEQDSKDSTYSLSSTLTLSKADYEKHKVYACEVTHQGLSSPVTKSFNRGEC
For the molecule B1, the “binding to human FcγR1” value in the series with human FcγR1 was “no significant binding; also recorded: does not bind”. Where the note is “monotherapy cohort (N=10)”, this molecule showed an SAE decreased appetite of 10%, an SAE dyspnea of 10%, an SAE hyponatremia of 10% and an SAE peritonitis bacterial of 10%. Also, under “monotherapy cohort (N=10)”, the SAE pleural effusion was 10%, the “discontinued domvanalimab due to a TEAE” value was 30% and the “dose delays/interruptions due to a TEAE” value turned out to be 10%. Under setting [1], the “SAEs considered related to domvanalimab” value was “none”; the “TEAE dyspnea regardless of causality” value is 30%; the “all other TEAEs, each” value is not above 10%; the “participants with SAEs” value is 40%. Besides, under setting [1], the “participants with at least 1 TEAE” value is reported as 100%, the “participants with domvanalimab-related TEAEs” value was determined as 30% and the “total number of SAEs” value came out at 5. Also, under setting [2], the “domvanalimab-related TEAE fatigue” value amounted to 10%, the “domvanalimab-related TEAE hyperglycemia” value stood at 10%, the “domvanalimab-related TEAE nausea” value was 10% and the “domvanalimab-related TEAE pruritus” value was 10%. Further, under “whole study, initial cutoff”, the “deaths due to treatment-related AEs” value is recorded as “No deaths”.
